Tests used:
[1] = molecular target: PACRGΔ1-69 Y108ϕ (p-iodo-L-phenylalanine derivative) (human, UniProt Q96M98-2 70-257, Y108ϕ, p-iodo-L-phenylalanine (ϕ) at 108); experiment: SEC
[2] = molecular target: PACRGΔ1-69 Y189ϕ (p-iodo-L-phenylalanine derivative) (human, UniProt Q96M98-2 70-257, Y189ϕ, p-iodo-L-phenylalanine (ϕ) at 189); experiment: SEC

B1: MEIG1 (human), His6 tag cleaved (natural protein)
chain: MASSDVKPKSVSHAKKWSEEIENLYRFQQAGYRDETEYRQVKQVSMVDRWPETGYVKKLQRRDNTFYYYNKQRECDDKEVHKVKIYAY
- binding result [1]: binds
- binding result [2]: binds

Source: paper doi:10.1101/783373 (bioRxiv, 2019)
